In this assay the target is mouse teneurin-3 A1B1 complete extracellular domain (ECD, residues 342-2715) (mouse) (UniProt Q9WTS6). As to the kind of experiment: SEC-MALS; purified ECD, 0.5 mg/mL in 20 mM HEPES pH 7.8, 150 mM NaCl, 2 mM CaCl2, Superose6 Increase 10/300 GL; also SDS-PAGE with or without beta-mercaptoethanol; covalent (disulphide-linked) dimer.

A word on the stoichiometry N: it is the number of molecules, sites or subunits per partner or assembly.

For “mouse teneurin-3 A1B1 complete extracellular domain (ECD, residues 342-2715), Q9WTS6-1 342-2715”, the stoichiometry N is 2.

For the origin of these results see paper PMC11058771.
